Values quoted from earlier work, collected in US20180318303A1, “METHODS FOR TREATING MYELOPROLIFERATIVE DISORDERS” (Promedior, Inc., priority 2015, published 2018).

Conditions: in vivo

Q: Which physiological half-life does the source give for “SAP: naturally occurring serum protein in mammals composed of five identical subunits, non-covalently associated in a disk-like complex” here?
A: Its physiological half-life is “twenty-four”.
